# In the supplement of paper PMC7125110:
# ± gives the standard error. For some of these results: Variants at the floor of the assay were thinned out.
# B1: glmS ribozyme (parent)
# chain: AUAAAAGCGCCAGAACUACAGAAAUGUAGUUGACGAGGAGGAGGUUUAUCGAAUUUUCGGCGGAUGCCUCCAAA
# Key:
# Conditions in all cases: with glucosamine-6-phosphate
# [1] = variants of: B1; test: kcat; higher = faster cleavage; RNA array
# Outline: (§1)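 Barcoded ribozyme variants were transcribed in situ on sequenced MiSeq chips by E. coli RNA polymerase. At 37 °C, a hybridised Cy3 probe tracked them while glucosamine-6-phosphate (40 μM to 10 mM) in HEPES/KCl/Mg(OAc)2 buffer flowed in and tiles were imaged over ~14 h. Per-tile medians of signals normalised to baseline and to non-cleaving reference variants were fit to one- or two-exponential decays, giving kobs. kcat and KM came from weighted Michaelis–Menten fits across concentrations.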
# [2] = variants of: B1; test: self-cleavage kobs at 10000 uM GlcN6P; higher = faster cleavage; RNA array
# Outline: as §1
# [3] = variants of: B1; test: self-cleavage kobs at 40 uM GlcN6P; higher = faster cleavage; RNA array
# Outline: as §1
# [4] = variants of: B1; test: self-cleavage kobs at 2500 uM GlcN6P; higher = faster cleavage; RNA array
# Outline: as §1
# [5] = variants of: B1; test: KM; higher = weaker cofactor use; RNA array
# Outline: as §1
# [6] = variants of: B1; test: self-cleavage kobs at 640 uM GlcN6P; higher = faster cleavage; RNA array
# Outline: as §1
# [7] = variants of: B1; test: self-cleavage kobs at 160 uM GlcN6P; higher = faster cleavage; RNA array
# Outline: as §1
Variant,kcat [1],self-cleavage kobs at 10000 uM GlcN6P [2],self-cleavage kobs at 40 uM GlcN6P [3],self-cleavage kobs at 2500 uM GlcN6P [4],KM [5],self-cleavage kobs at 640 uM GlcN6P [6],self-cleavage kobs at 160 uM GlcN6P [7]
A12G G29U C67G,7.88e-05 ± 1.7e-05 s⁻¹,6.04e-05 ± 1.4e-05 s⁻¹,–,–,–,–,–
G32A G44C C67U,0.000144 ± 5.9e-05 s⁻¹,0.00011 ± 2.3e-05 s⁻¹,< 1e-05 s⁻¹,0.000148 ± 4.6e-05 s⁻¹,–,–,–
A42U A53C,0.000148 ± 2.3e-05 s⁻¹,0.000113 ± 1.6e-05 s⁻¹,–,7.29e-05 ± 2e-05 s⁻¹,3050 ± 1500 µM,–,–
A14C G44U,4.6e-05 ± 8.4e-06 s⁻¹,3.91e-05 ± 9.8e-06 s⁻¹,< 1e-05 s⁻¹,3.7e-05 ± 1.4e-05 s⁻¹,–,–,–
G32A U45G,0.000591 ± 0.00017 s⁻¹,0.000488 ± 5.2e-05 s⁻¹,–,0.000204 ± 5.3e-05 s⁻¹,–,0.000212 ± 4.3e-05 s⁻¹,–
U30A G60A,< 1e-05 s⁻¹,–,< 1e-05 s⁻¹,–,–,< 1e-05 s⁻¹,–
A42G U46A,0.00476 ± 0.00084 s⁻¹,0.00455 ± 0.00072 s⁻¹,0.000149 ± 2.5e-05 s⁻¹,–,1200 ± 320 µM,0.00178 ± 0.00057 s⁻¹,0.000896 ± 0.00031 s⁻¹
C11G A33U,< 1e-05 s⁻¹,–,–,< 1e-05 s⁻¹,–,–,< 1e-05 s⁻¹
G38A A52U,< 1e-05 s⁻¹,< 1e-05 s⁻¹,–,–,–,–,–
U57A C70G,3.91e-05 ± 1.5e-05 s⁻¹,–,–,6.55e-05 ± 1.6e-05 s⁻¹,–,4.96e-05 ± 1.4e-05 s⁻¹,–
C8U A36C,< 1e-05 s⁻¹,< 1e-05 s⁻¹,–,–,–,–,–
U46C U55C,0.00703 ± 0.0025 s⁻¹,0.00515 ± 0.00071 s⁻¹,0.000129 ± 1.9e-05 s⁻¹,0.00291 ± 0.00042 s⁻¹,3630 ± 1700 µM,0.00108 ± 0.00013 s⁻¹,0.000217 ± 4.2e-05 s⁻¹
C16G U45G,0.000908 ± 7.3e-05 s⁻¹,0.000718 ± 9.7e-05 s⁻¹,–,0.000466 ± 0.00011 s⁻¹,2510 ± 380 µM,0.000199 ± 3.8e-05 s⁻¹,4.29e-05 ± 1.9e-05 s⁻¹
C16A G32A,0.0012 ± 0.00043 s⁻¹,0.000787 ± 0.00012 s⁻¹,–,–,–,0.000229 ± 0.00011 s⁻¹,–
A14G C16U G43A C67G,0.00284 ± 0.00076 s⁻¹,0.00217 ± 0.00045 s⁻¹,4.98e-05 ± 2.2e-05 s⁻¹,0.00221 ± 0.00072 s⁻¹,2840 ± 1100 µM,0.000459 ± 8.8e-05 s⁻¹,0.000207 ± 7.1e-05 s⁻¹
C11U A15C,0.000738 ± 0.00012 s⁻¹,0.000585 ± 4.9e-05 s⁻¹,–,0.000368 ± 6.1e-05 s⁻¹,2490 ± 850 µM,0.000194 ± 2.9e-05 s⁻¹,2.57e-05 ± 1.1e-05 s⁻¹
U49G U65G,0.0002 ± 2.3e-05 s⁻¹,0.000124 ± 1.8e-05 s⁻¹,–,6.08e-05 ± 1.7e-05 s⁻¹,6050 ± 1500 µM,–,–
